US10294487B2, “Methods and compositions involving ALS variants with native substrate preference” (E I DU PONT DE NEMOURS AND COMPANY, priority 2012, dated 2019)
Changes are numbered by the printed parent chain. Numbers in names are those of the source.

B1: M354V: Site-directed mutation in S. cerevisiae ALS; position M351, 332 (protein, UniProt P07342 91-687, looked up, variant M354V)
Acetolactate synthase …: GLTGGQIFNEMMSRQNVDTVFGYPGGAILPVYDAIHNSDKFNFVLPKHEQGAGHMAEGYARASGKPGVVLVTSGPGATNVVTPMADAFADGIPMVVFTGQVPTSAIGTDAFQEADVVGISRSCTKWNVMVKSVEELPLRINEAFEIATSGRPGPVLVDLPKDVTAAILRNPIPTKTTLPSNALNQLTSRAQDEFVMQSINKAADLINLAKKPVLYVGAGILNHADGPRLLKELSDRAQIPVTTTLQGLGSFDQEDPKSLDMLGVHGCATANLAVQNADLIIAVGARFDDRVTGNISKFAPEARRAAAEGRGGIIHFEVSPKNINKVVQTQIAVEGDATTNLGKMMSKIFPVKERSEWFAQINKWKKEYPYAYMEETPGSKIKPQTVIKKLSKVANDTGRHVIVTTGVGQHQMWAAQHWTWRNPHTFITSGGLGTMGYGLPAAIGAQVAKPESLVIDIDGDASFNMTLTELSSAVQAGTPVKILILNNEEQGMVTQWQSLFYEHRYSHTHQLNPDFIKLAEAMGLKGLRVKKQEELDAKLKEFVSTKGPVLLEVEVDKKVPVLPMVAGGSGLDEFINFDPEVERQQTELRHKRTGGKH
B2: R199E: Site-directed mutation in A. thaliana ALS; position R199, 180 (protein, UniProt P17597 56-670, looked up, variant R199E)
Acetolactate synthase, …: SSSPSSISAVLNTTTNVTTTPSPTKPTKPETFISRFAPDQPRKGADILVEALERQGVETVFAYPGGASMEIHQALTRSSSIRNVLPRHEQGGVFAAEGYARSSGKPGICIATSGPGATNLVSGLADALLDSVPLVAITGQVPREMIGTDAFQETPIVEVTRSITKHNYLVMDVEDIPRIIEEAFFLATSGRPGPVLVDVPKDIQQQLAIPNWEQAMRLPGYMSRMPKPPEDSHLEQIVRLISESKKPVLYVGGGCLNSSDELGRFVELTGIPVASTLMGLGSYPCDDELSLHMLGMHGTVYANYAVEHSDLLLAFGVRFDDRVTGKLEAFASRAKIVHIDIDSAEIGKNKTPHVSVCGDVKLALQGMNKVLENRAEELKLDFGVWRNELNVQKQKFPLSFKTFGEAIPPQYAIKVLDELTDGKAIISTGVGQHQMWAAQFYNYKKPRQWLSSGGLGAMGFGLPAAIGASVANPDAIVVDIDGDGSFIMNVQELATIRVENLPVKVLLLNNQHLGMVMQWEDRFYKANRAHTFLGDPAQEDEIFPNMLLFAAACGIPAARVTKKADLREAIQTMLDTPGPYLLDVICPHQEHVLPMIPSGGTFNDVITEGDGRIKY
B3: P192S: Site-directed mutation in S. cerevisiae ALS; position P197, 178 (protein, UniProt P07342 91-687, looked up, variant P192S)
Acetolactate synthase …: B1 Acetolactate synthase … with P102S, V264M
B4: A122V: Site-directed mutation in A. thaliana ALS; position A122, 103 (protein, UniProt P17597 56-670, looked up, variant A122V)
Acetolactate synthase, …: B2 Acetolactate synthase, … with A67V, E144R
B5: F590L: Site-directed mutation in S. cerevisiae ALS; position F578, 559 (protein, UniProt P07342 91-687, looked up, variant F590L)
Acetolactate synthase …: B1 Acetolactate synthase … with V264M, F500L
B6: G116S: Site-directed mutation in Saccharomyces cerevisiae ALS; position G121 A. thal., 102 G. max (protein, UniProt P07342 91-687, looked up, variant G116S)
Acetolactate synthase …: B1 Acetolactate synthase … with G26S, V264M
B7: W586L: Site-directed mutation in S. cerevisiae ALS; position W574, 555 (protein, UniProt P07342 91-687, looked up, variant W586L)
Acetolactate synthase …: B1 Acetolactate synthase … with V264M, W496L
B8: K251T: Site-directed mutation in S. cerevisiae ALS; position K256, 237 (protein, UniProt P07342 91-687, looked up, variant K251T)
Acetolactate synthase …: B1 Acetolactate synthase … with K161T, V264M
B9: D379N: Site-directed mutation in S. cerevisiae ALS; position D376, 357 (protein, UniProt P07342 91-687, looked up, variant D379N)
Acetolactate synthase …: B1 Acetolactate synthase … with V264M, D289N
B10: A200V: Site-directed mutation in S. cerevisiae ALS; position A205, 186 (protein, UniProt P07342 91-687, looked up, variant A200V)
Acetolactate synthase …: B1 Acetolactate synthase … with A110V, V264M
B11: SAMS: GM-ALS_P178S_D357E: SAMS promoter driving ALS variant SEQ ID NO 17 in transgenic soybean (protein)
chain: MAATASRTTRFSSSSSHPTFPKRITRSTLPLSHQTLTKPNHALKIKCSISKPPTAAPFTKEAPTTEPFVSRFASGEPRKGADILVEALERQGVTTVFAYPGGASMEIHQALTRSAAIRNVLPRHEQGGVFAAEGYARSSGLPGVCIATSGPGATNLVSGLADALMDSVPVVAITGQVSRRMIGTDAFQETPIVEVSRSITKHNYLILDVDDIPRVVAEAFFVATSGRPGPVLIDIPKDVQQQLAVPNWDEPVNLPGYLARLPRPPAEAQLEHIVRLIMEAQKPVLYVGGGSLNSSAELRRFVELTGIPVASTLMGLGTFPIGDEYSLQMLGMHGTVYANYAVDNSDLLLAFGVRFDERVTGKLEAFASRAKIVHIDIDSAEIGKNKQAHVSVCADLKLALKGINMILEEKGVEGKFDLGGWREEINVQKHKFPLGYKTFQDAISPQHAIEVLDELTNGDAIVSTGVGQHQMWAAQFYKYKRPRQWLTSGGLGAMGFGLPAAIGAAVANPGAVVVDIDGDGSFIMNVQELATIRVENLPVKILLLNNQHLGMVVQWEDRFYKSNRAHTYLGDPSSESEIFPNMLKFADACGIPAARVTKKEELRAAIQRMLDTPGPYLLDVIVPHQEHVLPMIPSNGSFKDVITEGDGRTRY
B12: SAMS: GM-ALS_A103T_P178S: SAMS promoter driving ALS variant SEQ ID NO 7 in transgenic soybean (protein)
chain: B11 chain with A103T, E357D

tested on: ALS; assay: not given; details: IP (abbreviation not defined); cited from earlier work

Molecule | Resistance pattern, I50 fold increase: IP [fold]
B1 | 10

same assay, conditions: imazethapyr; cited from earlier work

Molecule | Resistance pattern, I50 fold increase: IEt
B2 | IEt, 50 fold
B1 | 90 fold
B3 | IEt, 10 fold

same assay, conditions: imidazolinone(s); cited from earlier work

Molecule | Resistance pattern, I50 fold increase: IM
B4 | IMs, 1000-2000 fold
B5 | IM, 60 fold
B6 | IMs 15-300 fold
B7 | IMs, 8-70 fold
B8 | IMs, 10-150 fold
B9 | hypersensitivity
B10 | IMs, 10-100 fold

same assay, conditions: sulfometuron methyl; cited from earlier work

Molecule | Resistance pattern, I50 fold increase: SM
B2 | SM, 2 fold

same assay, conditions: sulfonylurea(s); cited from earlier work

Molecule | Resistance pattern, I50 fold increase: SU
B4 | SUs, 4 fold
B5 | SUs, 30-300 fold
B1 | SUs, 5-85 fold
B6 | SUs, 1000-10000 fold
B7 | SUs, 1000-10000 fold
B8 | SU, 10-100 fold
B9 | SUs, 200-900 fold
B3 | SUs, 400-2000 fold
B10 | SUs, 300-700 fold

tested on: ALS; assay: not given; details: cofactor activation constant, flavin adenine dinucleotide; cited from earlier work

Molecule | Kinetic parameters: Kc for FAD
B4 | Kc for FAD, 400 % wt

same assay, conditions: cofactor activation constant, thiamin pyrophosphate; cited from earlier work

Molecule | Kinetic parameters: Kc for TPP
B4 | Kc for TPP, 2000 % wt

same assay, conditions: pyruvate reaction; cited from earlier work

Molecule | Kinetic parameters: Km | Kinetic parameters: kcat
B4 | Km, 160 % wt | kcat, 25 % wt
B5 | Km, 30 % wt | kcat, 200 % wt
B1 | Km, 60 % wt | kcat, 50 % wt
B6 | Km, 20 % wt | kcat, 75 % wt
B7 | Km, 80 % wt | kcat, 450 % wt
B8 | 65 % wt | 1 % wt
B9 | Km, 133 % wt | kcat, 140 % wt
B3 | Km, 75 % wt | kcat, 25 % wt
B10 | 100 % wt | 20 % wt

tested on: soybean plants; assay: Chlorsulfuron spray test of transgenic T1 soybean plants; assay type: in vivo; details: chlorsulfuron 3 g ai/ha foliar; homozygous T1 plants; 8 days after treatment; 0=no effect, 100=dead plant
Protocol: T1 plants, each having an ALS variant transgene, were grown to the V1 to V2 growth stage and then sprayed with commercial chlorsulfuron formulation at a rate of 3 g ai/ha. All chlorsulfuron treatments were applied foliarly with 0.25% nonionic surfactant in a spray volume of 374 L/ha. Individual plants were compared to untreated plants of similar genetic background, evaluated for herbicide response at eight days after treatment and assigned a visual response score from 0 to 100% injury (0=no effect to 100=dead plant at day 8).
Results in Table 8 list the lowest injury among plants of a single event for constructs containing the listed expression cassette. The amino acid substituted ALS variants provided more protection than the overexpression of the native ALS gene. Seed was produced from a number of T1 plants and advanced to more extensive herbicide testing in the T2 generation.

Molecule | Lowest % injury [%]
B11 | 45
B12 | 80
